Values quoted from earlier work in paper PMC7448383.
pKd: −log10 of the molar value.

Target: GST (Schistosoma japonicum) [GST: P08515]

GST, sequence (P08515 2-218): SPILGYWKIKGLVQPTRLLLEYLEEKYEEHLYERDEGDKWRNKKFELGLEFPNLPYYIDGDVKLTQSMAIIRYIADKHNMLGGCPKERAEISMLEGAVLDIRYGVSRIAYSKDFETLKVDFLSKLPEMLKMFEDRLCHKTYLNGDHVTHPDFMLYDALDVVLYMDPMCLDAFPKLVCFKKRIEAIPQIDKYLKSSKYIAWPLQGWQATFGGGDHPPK

With GST (from UniProt P08515) as the substance, how does the pKd read?
Its pKd is 6.47.
